Tested on: MS2 coat protein
Assay: apparent KD of MS2 coat protein; designed switch direction (-1 OFF switch, 1 ON switch): -1; higher = weaker reporter binding
In short: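 For each design, the apparent KD is the median over clusters of curves fitted to normalised cluster fluorescence. Clusters held RNA switches with common flanks, transcribed on Illumina chips by stalled E. coli RNA polymerase. These were titrated with SNAP-549-labelled MS2 coat protein, doubling from 0.7 or 1.5 nM to 3 µM, without input, with 200 uM small-molecule ligand, or with an oligonucleotide input.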

[1] = input ligand: microRNA oligo, concentration not stated
[2] = Eterna round: R95, input ligand: FMN 200 uM
[3] = Eterna round: R95, input ligand: microRNA oligo, concentration not stated
[4] = Eterna round: R95, input ligand: none

Sequence | apparent KD of MS2 coat protein (input ligand: FMN 200 uM) [nM] | apparent KD of MS2 coat protein [1] [nM] | apparent KD of MS2 coat protein (input ligand: none) [nM] | apparent KD of MS2 coat protein [2] [nM] | apparent KD of MS2 coat protein [3] [nM] | apparent KD of MS2 coat protein [4] [nM]
ACAUGAGGAUCACCCAUGUGACCACGAUGGCUGAUGUAAAGACAGGAUAUGUGUGAAUAUCUAACACAGAAGGGUCUUGACUGG [Deportation 56 - Jieux - Exclusion NG 3] (Eterna round: R96, puzzle: Exclusion NG 3) | 33.8 | 32.6 | 33.2 | – | – | –
AAGAAACAUGAGGAUCACCCAUGUGAGGAUAUGAUGAAGAAAAGAAAAGAAAGAAGACUCAGAAGGCACAAAGG [salish99-ex1_r3_070] (puzzle: Exclusion 1) | – | – | – | 77.1 | 45.3 | 47.4
ACGUGAUAUCUGUCGGUGGACAUGAGGAUCACCCAUGUGAGCUUUUUGCUCGUCUUGUAACCCGGUGACAGACCUUC [Encetia] (puzzle: Sensor v3, turn-off variant 1) | – | – | – | 22.4 | 213 | 22.3
GUAGCUUCGGCUACUACAAGCUUUUUGCUCGUCUUAUUAACAUGAGGAUCACCCAUGUCAAAGAGACCUCAUGUAUU [Sensor v3 - turn-off variant 2 - 5] (puzzle: Sensor v3, turn-off variant 2) | – | – | – | 420 | 28.2 | 462
UUUUUACAUGAGGAUCACCCAUGUGAGGAUAUGGUUUCGCUGGCCGUAGCCAGUGGAACCAGAAGGCGCAUGAU [Mat - Exclusion 1 - JL Mod - D8] (Eterna round: R97, puzzle: Exclusion 1) | 374 | – | 84.7 | – | – | –
UUUAAAACAUAGGAUAUCGAAUUAAUCAUUUAACGAGAAGGAUGAACAUGAGGAUCACCCAUGUGGUAUCAUGG [Mat - Exclusion 6 - JL Mod - D19] (puzzle: Exclusion 6) | – | – | – | 282 | 274 | 270
AAUAACAGAGGAUAUACUAUUUUAUGUGUUUAUUGUUUUGAACAUGAGGAUCACCCAUGUAGAAGGCUGAUUAA [JMF 51] (puzzle: Exclusion 2) | – | – | – | – | 35.3 | –
GGAAAACAUGAGGAUCACCCAUGUAAGGAUAUGCAAAAGGAUAUAGAAGGAAAAUAAAGCAGAAGGUACAAAGG [salish99-ex1_r3_098] (puzzle: Exclusion 1) | – | – | – | 126 | 23.7 | 127
CCGGAAUUGAAGGAUAUAGGAGUCGAUAGACACCUAGAAGGUCAGACAUGAGGAUCACCCAUGUGUCCUACCGG [Fiskers Ex 6 - 86] (puzzle: Exclusion 6) | – | – | – | 27.4 | 21 | 17.4
UUUUGGCAUGUAGGAUAUGGGUCCGAUUGGGAUUUAGAAGGACAUGAGGAUCACCCAUGUGCCCUUACUUGGUGUUUUUUUUUU [EXclNG1-LROPPY20] (Eterna round: R96, puzzle: Exclusion NG 1) | 126 | 44.6 | 91.6 | – | – | –
GAUUAUGCGAGCUUUAGGGACAUGAGGAUCACCCAUGUUCGUCUUAUUGGUCUGAGUGCACUGACAUACCUAAAUCU [JMF 86] (puzzle: Sensor v3, turn-off variant 1) | – | – | – | 19.4 | 30.9 | 19.9
AAGAGAGCAGGAUAUCGGUUUUGCGACAUGAGGAUCACCCAUGUGAGCCGAGUCCAACGCCGAGAAGGGCUAAAAU [Onesis] (puzzle: Exclusion 5) | – | – | – | – | 53.3 | –
AUAAGUGAUAAGGAUAUCACUAGCUUCGGCUAGUGAGAAGGUAUCACAUGAGGAUCACCCAUGUGUUCCAAUAA [Ex6/7-A1] (Eterna round: R97, puzzle: Exclusion 6) | 603 | – | 213 | – | – | –
ACCAAAGCAGUAGGAUAUACGCACAUGAGGAUCACCCAUGUAGCACGUCUCCAGACACCGAAUGCGUAGAAGGACUGCGCGCAA [Eternabot solution 3] (Eterna round: R96, puzzle: Exclusion NG 2) | 7.86 | 4.69 | 17 | – | – | –
